One substance from US20230255948 can be followed below.

This data set deals with GST-OPNR153A (E. coli produced mutant OPN with the arginine in the thrombin cleavage site mutated to alanine) (UniProt P10923).

Regarding Thrombin, the “thrombin cleavage (time course, 10 nM thrombin, SDS-PAGE)” value was “resistant to thrombin cleavage”.
